According to the supplement of paper PMC9112550, “Optimization of the antimicrobial peptide Bac7 by deep mutational scanning” (BMC Biology, 2022):

system: Escherichia coli TOP10; test: shrunken log2 fold change of peptide-encoding DNA abundance (4.5 h post-induction vs induction); higher = less antimicrobial activity (less host growth inhibition); details: time post-induction: 4.5 h; library: site-saturation at positions 5, 18, 19, 20
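Also: peptides expressed intracellularly from a pBAD plasmid library in pooled LB shake-flask culture, induced with 0.3% L-arabinose, DNA abundance read by NGS, three biological replicates, DESeq2 with apeglm shrinkage.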

Sequence | shrunken log2 fold change
RRIRPRPPRLPRPRPRPVNFPRP | -0.59
RRIRPRPPRLPRPRPRPVNKPRP | -0.521
RRIRPRPPRLPRPRPRPVNLPRP | -0.136
RRIRPRPPRLPRPRPRPVNVPRP | -0.326
RRIRPRPPRLPRPRPRPVPIPRP | 0.0844
RRIRPRPPRLPRPRPRPVPTPRP | 0.424
RRIRPRPPRLPRPRPRPVQCPRP | -0.0846
RRIRPRPPRLPRPRPRPVQWPRP | 0.151
RRIRPRPPRLPRPRPRPVRGPRP | 0.898
RRIRPRPPRLPRPRPRPVSPPRP | 0.0647
RRIRPRPPRLPRPRPRPVYHPRP | -0.388
RRIRPRPPRLPRPRPRPWAGPRP | -0.0189
RRIRPRPPRLPRPRPRPWCQPRP | 0.0224
RRIRPRPPRLPRPRPRPWFCPRP | 0.138
RRIRPRPPRLPRPRPRPWHMPRP | -0.0632
RRIRPRPPRLPRPRPRPWIDPRP | -0.35
RRIRPRPPRLPRPRPRPWIGPRP | -0.0305
RRIRPRPPRLPRPRPRPWKCPRP | 0.0176
RRIRPRPPRLPRPRPRPWKEPRP | -0.164
RRIRPRPPRLPRPRPRPWKHPRP | -0.19
RRIRPRPPRLPRPRPRPWLRPRP | 0.421
RRIRPRPPRLPRPRPRPWMDPRP | -0.934
RRIRPRPPRLPRPRPRPWMHPRP | 0.0123
RRIRPRPPRLPRPRPRPWNMPRP | -0.189
RRIRPRPPRLPRPRPRPWPQPRP | 0.0953

Sequence | shrunken log2 fold change
RRIRPRPPRLPRPRPRPWQYPRP | 0.0173
RRIRPRPPRLPRPRPRPWYWPRP | -0.161
RRIRPRPPRLPRPRPRPYASPRP | -0.0775
RRIRPRPPRLPRPRPRPYEKPRP | -0.0835
RRIRPRPPRLPRPRPRPYFCPRP | -0.293
RRIRPRPPRLPRPRPRPYFQPRP | -0.593
RRIRPRPPRLPRPRPRPYGGPRP | -0.153
RRIRPRPPRLPRPRPRPYGQPRP | -0.169
RRIRPRPPRLPRPRPRPYIAPRP | -0.395
RRIRPRPPRLPRPRPRPYIFPRP | -0.984
RRIRPRPPRLPRPRPRPYIKPRP | -0.939
RRIRPRPPRLPRPRPRPYKVPRP | -0.338
RRIRPRPPRLPRPRPRPYLYPRP | -0.672
RRIRPRPPRLPRPRPRPYMYPRP | -0.634
RRIRPRPPRLPRPRPRPYNHPRP | -1.2
RRIRPRPPRLPRPRPRPYRHPRP | -0.483
RRIRPRPPRLPRPRPRPYRLPRP | -0.136
RRIRPRPPRLPRPRPRPYSVPRP | -1.01
RRIRPRPPRLPRPRPRPYSYPRP | -0.228
RRIRPRPPRLPRPRPRPYTCPRP | -0.179
RRIRPRPPRLPRPRPRPYVEPRP | -0.415
RRIRPRPPRLPRPRPRPYVGPRP | -0.157
RRIRPRPPRLPRPRPRPYYKPRP | -0.215
RRIRQRPPRLPRPRPRPAAGPRP | 0.0657
RRIRQRPPRLPRPRPRPAAKPRP | -0.0272

Sequence | shrunken log2 fold change
RRIRQRPPRLPRPRPRPAAMPRP | 0.248
RRIRQRPPRLPRPRPRPAERPRP | 0.179
RRIRQRPPRLPRPRPRPAESPRP | 0.0234
RRIRQRPPRLPRPRPRPAFIPRP | -0.239
RRIRQRPPRLPRPRPRPAGHPRP | 0.000618
RRIRQRPPRLPRPRPRPAKHPRP | 0.204
RRIRQRPPRLPRPRPRPAKVPRP | 0.325
RRIRQRPPRLPRPRPRPALEPRP | 0.275
RRIRQRPPRLPRPRPRPAMSPRP | 0.322
RRIRQRPPRLPRPRPRPANAPRP | -0.0699
RRIRQRPPRLPRPRPRPANYPRP | -0.0497
RRIRQRPPRLPRPRPRPAPKPRP | 0.148
RRIRQRPPRLPRPRPRPAQGPRP | -0.0366
RRIRQRPPRLPRPRPRPARDPRP | 0.0373
RRIRQRPPRLPRPRPRPASCPRP | 0.182
RRIRQRPPRLPRPRPRPASPPRP | -0.0456
RRIRQRPPRLPRPRPRPATSPRP | 0.0218
RRIRQRPPRLPRPRPRPAVFPRP | -0.0406
RRIRQRPPRLPRPRPRPAVTPRP | 0.167
RRIRQRPPRLPRPRPRPAWKPRP | 0.0232
RRIRQRPPRLPRPRPRPAYCPRP | -0.043
RRIRQRPPRLPRPRPRPAYMPRP | -0.263
RRIRQRPPRLPRPRPRPCCDPRP | -0.0081
RRIRQRPPRLPRPRPRPCCNPRP | -0.0838
RRIRQRPPRLPRPRPRPCCTPRP | -0.137

Sequence | shrunken log2 fold change
RRIRQRPPRLPRPRPRPCFTPRP | -0.684
RRIRQRPPRLPRPRPRPCHAPRP | -0.126
RRIRQRPPRLPRPRPRPCIYPRP | -0.204
RRIRQRPPRLPRPRPRPCKFPRP | -0.194
RRIRQRPPRLPRPRPRPCPEPRP | -0.249
RRIRQRPPRLPRPRPRPCPVPRP | -0.477
RRIRQRPPRLPRPRPRPCTMPRP | -0.804
RRIRQRPPRLPRPRPRPCTTPRP | -0.104
RRIRQRPPRLPRPRPRPCVCPRP | -0.0231
RRIRQRPPRLPRPRPRPCVFPRP | -0.049
RRIRQRPPRLPRPRPRPCVLPRP | -0.298
RRIRQRPPRLPRPRPRPCVYPRP | 4.4
RRIRQRPPRLPRPRPRPCWTPRP | -0.0267
RRIRQRPPRLPRPRPRPCYAPRP | -0.251
RRIRQRPPRLPRPRPRPDACPRP | 0.0301
RRIRQRPPRLPRPRPRPDADPRP | -0.0253
RRIRQRPPRLPRPRPRPDEAPRP | -0.0116
RRIRQRPPRLPRPRPRPDEDPRP | -0.0326
RRIRQRPPRLPRPRPRPDEIPRP | -0.00251
RRIRQRPPRLPRPRPRPDFGPRP | 0.0964
RRIRQRPPRLPRPRPRPDFTPRP | -0.134
RRIRQRPPRLPRPRPRPDGWPRP | 0.228
RRIRQRPPRLPRPRPRPDHTPRP | -0.0589
RRIRQRPPRLPRPRPRPDIKPRP | -0.0227
RRIRQRPPRLPRPRPRPDILPRP | -0.0607

Sequence | shrunken log2 fold change
RRIRQRPPRLPRPRPRPDIPPRP | -0.811
RRIRQRPPRLPRPRPRPDLVPRP | -0.0031
RRIRQRPPRLPRPRPRPDPIPRP | -0.0263
RRIRQRPPRLPRPRPRPDPTPRP | 0.119
RRIRQRPPRLPRPRPRPDQSPRP | -0.222
RRIRQRPPRLPRPRPRPDVIPRP | -0.011
RRIRQRPPRLPRPRPRPDWAPRP | -0.012
RRIRQRPPRLPRPRPRPDWEPRP | 0.0238
RRIRQRPPRLPRPRPRPECTPRP | 0.0484
RRIRQRPPRLPRPRPRPECVPRP | 0.386
RRIRQRPPRLPRPRPRPEDFPRP | -0.0175
RRIRQRPPRLPRPRPRPEECPRP | -0.0135
RRIRQRPPRLPRPRPRPEEFPRP | -0.0679
RRIRQRPPRLPRPRPRPEEHPRP | -0.0135
RRIRQRPPRLPRPRPRPEGHPRP | 0.00489
RRIRQRPPRLPRPRPRPEGRPRP | 0.00666
RRIRQRPPRLPRPRPRPEHCPRP | -0.199
RRIRQRPPRLPRPRPRPEHQPRP | -0.0955
RRIRQRPPRLPRPRPRPEKYPRP | -0.304
RRIRQRPPRLPRPRPRPELHPRP | 0.0795
RRIRQRPPRLPRPRPRPELNPRP | 0.0915
RRIRQRPPRLPRPRPRPEMAPRP | -0.0608
RRIRQRPPRLPRPRPRPEMPPRP | 0.188
RRIRQRPPRLPRPRPRPENTPRP | -0.387
RRIRQRPPRLPRPRPRPENWPRP | 0.284

Sequence | shrunken log2 fold change
RRIRQRPPRLPRPRPRPEPFPRP | -0.00936
RRIRQRPPRLPRPRPRPEPVPRP | 0.0323
RRIRQRPPRLPRPRPRPEQPPRP | 0.393
RRIRQRPPRLPRPRPRPESPPRP | 0.0606
RRIRQRPPRLPRPRPRPETSPRP | -0.192
RRIRQRPPRLPRPRPRPEVCPRP | 0.134
RRIRQRPPRLPRPRPRPEVFPRP | 0.0304
RRIRQRPPRLPRPRPRPEWKPRP | -0.00192
RRIRQRPPRLPRPRPRPEYQPRP | 0.00438
RRIRQRPPRLPRPRPRPFDQPRP | -0.0498
RRIRQRPPRLPRPRPRPFDVPRP | 0.028
RRIRQRPPRLPRPRPRPFFIPRP | -0.365
RRIRQRPPRLPRPRPRPFGSPRP | -0.156
RRIRQRPPRLPRPRPRPFHHPRP | -0.0143
RRIRQRPPRLPRPRPRPFILPRP | -0.635
RRIRQRPPRLPRPRPRPFIVPRP | -0.136
RRIRQRPPRLPRPRPRPFKFPRP | -0.00873
RRIRQRPPRLPRPRPRPFKLPRP | -0.152
RRIRQRPPRLPRPRPRPFKTPRP | -0.0381
RRIRQRPPRLPRPRPRPFKVPRP | -0.00664
RRIRQRPPRLPRPRPRPFLMPRP | -0.421
RRIRQRPPRLPRPRPRPFMMPRP | -0.25
RRIRQRPPRLPRPRPRPFMYPRP | 0.000979
RRIRQRPPRLPRPRPRPFNYPRP | -0.304
RRIRQRPPRLPRPRPRPFPEPRP | -0.0157
